Source: US20210179715A1 (Genentech, published 2021)
Where “and” joins values, the source holds several entries; their conditions need not be identical. Identical values can stand only once. Like-named read-outs stand apart in the source and are kept apart here.

Legend:
human LY6G6D-Fc [1] = target: T1, human LY6G6D-Fc (human, UniProt O95868 20-104); assay: BIAcore SPR; chimeric Fab; Ly6G6D-Fc captured on Protein A chip; 37 C
T1 construct: also called hu Ly6G6D; huLY6G6D; not shown: linker and Fc part
T1 sequence: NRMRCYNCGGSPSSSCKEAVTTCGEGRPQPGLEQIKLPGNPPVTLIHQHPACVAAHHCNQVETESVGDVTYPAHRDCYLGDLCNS

[2] = target: T2, polypeptide comprising amino acids 93-104 of LY6G6D (HRDCYLGDLCNS) (human); assay: co-crystal structure
T2 construct: also called LY6G6D peptide
T2 peptide: HRDCYLGDLCNS

[3] = target: T3, 27mer human CD3 polypeptide conjugated to biotin (human, conjugated to biotin (site not stated)); assay: BIAcore T200 SPR; biotin 27mer CD3 peptide on SA chip; TDB flowed; 37 C
T3 construct: The assay text says only '27mer human CD3 polypeptide'; also called HuCD3e pept biotin
T3 peptide: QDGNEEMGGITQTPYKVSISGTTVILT
Procedure: The MD1 and MD4 variants thus retained the high affinity of 38E4v1. Assays were performed using a BIAcore T200: 27mer human and cyno CD3 polypeptides were conjugated to biotin and were immobilized on a SA CM5 chip, and TDBs were flowed through at 100 μl/min at 37° C.

[4] = target: T3, 27mer human CD3 polypeptide conjugated …; assay: as above
Procedure: Assays were performed using a BIAcore T200. 27mer human and cyno CD3 polypeptides were conjugated to biotin and were immobilized on a SA CM5 chip. LY6G6D TDBs were flowed through at 37° C.

human LY6G6D-Fc [5] = target: T1, human LY6G6D-Fc; assay: BIAcore SPR; LY6G6D-Fc on chip; TDB flowed; 37 C
Procedure: TDBs comprising the anti-LY6G6D arm 20Al2.QNTv12 and the anti-CD3 38E4.v1 (left panel; produced using a two-cell-manufacturing system), 38E4.v1 MD1 (center panel; produced using a one-cell-manufacturing system), or 38E4.v1 MD4 arm (right panel; produced using a one-cell-manufacturing system) were assayed for affinity for a human Ly6G6D polypeptide (FIG. 25) using a BIAcore assay.

human LY6G6D-Fc [6] = target: T1, human LY6G6D-Fc; assay: BIAcore SPR; LY6G6D-Fc on chip; TDB flowed; 37 C; remark: listed apart in the source
Procedure: TDBs comprising the anti-LY6G6D 20A12.QNTv12 arm and the anti-CD3 38E4.v1 arm (FIG. 24A) or 40G5C arm (FIG. 24B) were assayed for affinity for a human and cyno Ly6G6D polypeptide using a BIAcore assay. Ly6G6D-Fc was directly immobilized on the chip, and the TDB was flowed through at 37° C. Similar assays were performed for TDBs comprising the anti-LY6G6D 1G4 arm and the anti-CD3 38E4.v1 arm (FIG. 24C) or 40G5C arm (FIG. 24D).

human LY6G6D-Fc [7] = target: T1, human LY6G6D-Fc; assay: BIAcore SPR
Procedure: (§1) The humanized rb.20A12 variant 20A12.QNTv12, the humanized rb.6E10 variant 6E10.v114, and the anti-LY6G6D 1G4 arm were paired with the anti-CD3 38E4v1 or 40G5c arm as TDBs and tested for affinity to human and cynomolgus LY6G6D in a BIAcore® assay. Rabbit 20Al2, rabbit 6E10, and humanized 20A12.QNTv12 and 20A12.SNVv12 were additionally assayed for binding as antigen-binding fragments (Fabs). LY6G6D-Fc was directly immobilized on a chip, and TDBs were flowed through at 37° C., except for the rb6E10 Fab, which was assayed at 25° C.

[8] = target: T2, polypeptide comprising amino acids …; assay: co-crystal structure, 2.2 A
Procedure: Ten 20A12.QNTv12 Fabs were tested.

human LY6G6D-Fc [9] = target: T1, human LY6G6D-Fc; assay: BIAcore SPR; LY6G6D-Fc on chip; Fab flowed; 37 C
Procedure: as §1

B1: rb20A12.IA (C35I-C50A) chimeric Fab (Fab, V domains shown)
VH: QQQLEESGGDLVKPGASLTLTCTASGFDFVNNAMIWVRQAPGKGLEWIAALSFADNTAYYATWASGRFTISKISSTTVTLRMTSLTGADTATYFCMRGDLWGPGTLVTVSS
VL: DIVMTQTPSSVSAAVGGTVTINCQASESITRYLNWYQQKPGQPPKLLIYDASKLPSGVPSRFKGSGSGTQFTLTTSDLECADAATYYCQSTSFRGRSYNNTFGGGTEVVVK
notes: also called rabbit 20A12 comprising C35I and C50A (IA) mutations
- Kd (human LY6G6D-Fc [1]): 0.86 nM

B2: 1G4 Fab (Fab, V domains shown)
VH: EVQLVQSGAEVKKPGASVKVSCKASGYTFTTYVMHWVRQAPGQGLEWMGYINPYNDGTKYNEKFKGRVTMTRDTSISTAYMELSRLRSDDTAVYYCGRRNFDYWGQGTLVTVSS
VL: DIVMTQSPDSLAVSLGERATINCKSSQSLLLSGNQENYLAWHQQKPGQPPKTLITWASTRISGVPDRFSGSGSGTDFTLTISSLQAEDVAVYYCQQSYSAPYTFGGGTKVEIKR
notes: also called Fab of 1G4
- binding result [2]: binds

B3: LY6G6D TDB assembled using a one-cell system comprising the anti-LY6G6D 20A12.QNTv12 arm (one-cell) and the anti-CD3 38E4v1 MD4 arm (bispecific antibody, V domains shown)
VH 1: EVQLLESGGGLVQPGGSLRLSCAASGFDFVNNAMIWVREAPGKGLEWVSALSFADNTAYYATWASGRFTISRDSSKTTVYLQMNSLRAEDTAVYYCMRGDLWGPGTLVTVSS
VL 1: DIQMTQSPSTLSASVGDRVTITCQASESITRYLNWYQKKPGKAPKLLIYDASKLPSGVPSRFSGSGSGTEFTLTISSLQPDDFATYYCQSTSFRGRSYQNTFGGGTKVEIK
VH 2: EVQLVQSGAEVKKPGASVKVSCKASGFTFTSYYIHWVRKAPGQGLEWIGWIYPENDNTKYNEKFKDRVTITADTSTSTAYLELSSLRSEDTAVYYCARDGYSRYYFDYWGQGTLVTVSS
VL 2: DIVMTQSPDSLAVSLGERATINCKSSQSLLNSRTRKNYLAWYQEKPGQPPKLLIYWASTRKSGVPDRFSGSGSGTDFTLTISSLQAEDVAVYYCKQSFILRTFGQGTKVEIK
notes: also called 20A12.QNTv12.MD4/38E4v1; MD4 one-cell
- Kd [3]: 18.8 nM and 18.6 nM
- koff [3]: 0.0544 s⁻¹ and 0.0495 s⁻¹
- kon [3]: 2.89e+06 M⁻¹ s⁻¹ and 2.66e+06 M⁻¹ s⁻¹
- Kd [4]: 18.7 nM
- Kd (human LY6G6D-Fc [5]): 1.89 nM
- koff (human LY6G6D-Fc [5]): 0.000559 s⁻¹
- kon (human LY6G6D-Fc [5]): 296000 M⁻¹ s⁻¹

B4: LY6G6D TDB comprising the anti-LY6G6D 1G4 arm and the anti-CD3 38E4.v1 arm (bispecific antibody, V domains shown)
VH 1: EVQLVQSGAEVKKPGASVKVSCKASGYTFTTYVMHWVRQAPGQGLEWMGYINPYNDGTKYNEKFKGRVTMTRDTSISTAYMELSRLRSDDTAVYYCGRRNFDYWGQGTLVTVSS
VL 1: DIVMTQSPDSLAVSLGERATINCKSSQSLLLSGNQENYLAWHQQKPGQPPKTLITWASTRISGVPDRFSGSGSGTDFTLTISSLQAEDVAVYYCQQSYSAPYTFGGGTKVEIK
VH 2: EVQLVQSGAEVKKPGASVKVSCKASGFTFTSYYIHWVRQAPGQGLEWIGWIYPENDNTKYNEKFKDRVTITADTSTSTAYLELSSLRSEDTAVYYCARDGYSRYYFDYWGQGTLVTVSS
VL 2: DIVMTQSPDSLAVSLGERATINCKSSQSLLNSRTRKNYLAWYQQKPGQSPKLLIYWTSTRKSGVPDRFSGSGSGTDFTLTISSLQAEDVAVYYCKQSFILRTFGQGTKVEIK
notes: also called 1G4/38E4v1
- Kd (human LY6G6D-Fc [6]): 16.3 nM
- koff (human LY6G6D-Fc [6]): 0.00886 s⁻¹
- kon (human LY6G6D-Fc [6]): 544000 M⁻¹ s⁻¹

B5: hu20A12.QNTv12 Fab (Fab, V domains shown)
VH: EVQLLESGGGLVQPGGSLRLSCAASGFDFVNNAMIWVRQAPGKGLEWVSALSFADNTAYYATWASGRFTISRDSSKTTVYLQMNSLRAEDTAVYYCMRGDLWGPGTLVTVSS
VL: DIQMTQSPSTLSASVGDRVTITCQASESITRYLNWYQQKPGKAPKLLIYDASKLPSGVPSRFSGSGSGTEFTLTISSLQPDDFATYYCQSTSFRGRSYQNTFGGGTKVEIKR
- Kd (human LY6G6D-Fc [7]): 0.14 nM
- binding result [8]: binds
- Kd (human LY6G6D-Fc [9]): 0.136 nM
- koff (human LY6G6D-Fc [9]): 0.000227 s⁻¹
- kon (human LY6G6D-Fc [9]): 1.67e+06 M⁻¹ s⁻¹

B6: LY6G6D TDB assembled using a one-cell system comprising the anti-LY6G6D 20A12.QNTv12 arm (one-cell) and the anti-CD3 38E4v1 (WT) arm (bispecific antibody, V domains shown)
VH 1: EVQLLESGGGLVQPGGSLRLSCAASGFDFVNNAMIWVREAPGKGLEWVSALSFADNTAYYATWASGRFTISRDSSKTTVYLQMNSLRAEDTAVYYCMRGDLWGPGTLVTVSS
VL 1: DIQMTQSPSTLSASVGDRVTITCQASESITRYLNWYQKKPGKAPKLLIYDASKLPSGVPSRFSGSGSGTEFTLTISSLQPDDFATYYCQSTSFRGRSYQNTFGGGTKVEIK
VH 2: EVQLVQSGAEVKKPGASVKVSCKASGFTFTSYYIHWVRKAPGQGLEWIGWIYPENDNTKYNEKFKDRVTITADTSTSTAYLELSSLRSEDTAVYYCARDGYSRYYFDYWGQGTLVTVSS
VL 2: DIVMTQSPDSLAVSLGERATINCKSSQSLLNSRTRKNYLAWYQEKPGQSPKLLIYWTSTRKSGVPDRFSGSGSGTDFTLTISSLQAEDVAVYYCKQSFILRTFGQGTKVEIK
notes: also called WT one-cell; one-cell WT
- Kd [3]: 19.9 nM and 21.3 nM
- koff [3]: 0.0516 s⁻¹ and 0.0498 s⁻¹
- kon [3]: 2.59e+06 M⁻¹ s⁻¹ and 2.34e+06 M⁻¹ s⁻¹
- Kd [4]: 20.6 nM

B7: hu20A12.SNVv12 Fab (Fab, V domains shown)
VH: EVQLLESGGGLVQPGGSLRLSCAASGFDFVNNAMIWVRQAPGKGLEWVSALSFADNTAYYATWASGRFTISRDSSKTTVYLQMNSLRAEDTAVYYCMRGDLWGPGTLVTVSS
VL: DIQMTQSPSTLSASVGDRVTITCQASESITRYLNWYQQKPGKAPKLLIYDASKLPSGVPSRFSGSGSGTEFTLTISSLQPDDFATYYCQSTSFRGRSYSNVFGGGTKVEIKR
- Kd (human LY6G6D-Fc [9]): 0.0195 nM
- koff (human LY6G6D-Fc [9]): 4.26e-05 s⁻¹
- kon (human LY6G6D-Fc [9]): 2.18e+06 M⁻¹ s⁻¹

B8: LY6G6D TDB assembled using a one-cell system comprising the anti-LY6G6D 20A12.QNTv12 arm (one-cell) and the anti-CD3 38E4v1 MD1 arm (bispecific antibody, V domains shown)
VH 1: EVQLLESGGGLVQPGGSLRLSCAASGFDFVNNAMIWVREAPGKGLEWVSALSFADNTAYYATWASGRFTISRDSSKTTVYLQMNSLRAEDTAVYYCMRGDLWGPGTLVTVSS
VL 1: DIQMTQSPSTLSASVGDRVTITCQASESITRYLNWYQKKPGKAPKLLIYDASKLPSGVPSRFSGSGSGTEFTLTISSLQPDDFATYYCQSTSFRGRSYQNTFGGGTKVEIK
VH 2: EVQLVQSGAEVKKPGASVKVSCKASGFTFTSYYIHWVRKAPGQGLEWIGWIYPENDNTKYNEKFKDRVTITADTSTSTAYLELSSLRSEDTAVYYCARDGYSRYYFDYWGQGTLVTVSS
VL 2: DIVMTQSPDSLAVSLGERATINCKSSQSLLNSRTRKNYLAWYQEKPGQPPKLLIYWASTRESGVPDRFSGSGSGTDFTLTISSLQAEDVAVYYCTQSFILRTFGQGTKVEIK
notes: also called 20A12.QNTv12.MD1/38E4v1; MD1 one-cell
- Kd [3]: 32.8 nM and 32.4 nM
- koff [3]: 0.0504 s⁻¹ and 0.0456 s⁻¹
- kon [3]: 1.54e+06 M⁻¹ s⁻¹ and 1.41e+06 M⁻¹ s⁻¹
- Kd [4]: 32.6 nM
- Kd (human LY6G6D-Fc [5]): 1.9 nM
- koff (human LY6G6D-Fc [5]): 0.000796 s⁻¹
- kon (human LY6G6D-Fc [5]): 420000 M⁻¹ s⁻¹
